Results as given in the supplement of paper PMC11246515.
± gives the standard deviation of the averaged measurements.

Experiment: total protein half-life in vivo (active degradation + dilution); higher = more stable protein
[1] = E. coli NCM3722 delta-clpP delta-lon delta-hslV, growth: N-lim chemostat, doubling time 6 h
[2] = E. coli NCM3722 delta-clpP, growth: N-lim chemostat, doubling time 6 h
[3] = E. coli NCM3722 delta-hslV, growth: N-lim chemostat, doubling time 6 h
[4] = E. coli NCM3722 delta-lon, growth: N-lim chemostat, doubling time 6 h
[5] = E. coli NCM3722 delta-smpB, growth: N-lim chemostat, doubling time 6 h
[6] = wild type E. coli NCM3722, growth: C-lim chemostat, doubling time 3 h
[7] = wild type E. coli NCM3722, growth: C-lim chemostat, doubling time 6 h
[8] = wild type E. coli NCM3722, growth: C-lim chemostat, doubling time 12 h
[9] = wild type E. coli NCM3722, growth: N-lim chemostat, doubling time 6 h
[10] = wild type E. coli NCM3722, growth: N-lim chemostat, doubling time 12 h
[11] = wild type E. coli NCM3722, growth: P-lim chemostat, doubling time 6 h
[12] = wild type E. coli NCM3722, growth: P-lim chemostat, doubling time 12 h

| Sequence | total protein half-life in vivo [1] [h] | total protein half-life in vivo [2] [h] | total protein half-life in vivo [3] [h] | total protein half-life in vivo [4] [h] | total protein half-life in vivo [5] [h] | total protein half-life in vivo [6] [h] | total protein half-life in vivo [7] [h] | total protein half-life in vivo [8] [h] | total protein half-life in vivo [9] [h] | total protein half-life in vivo [10] [h] | total protein half-life in vivo [11] [h] | total protein half-life in vivo [12] [h] |
| --- | --- | --- | --- | --- | --- | --- | --- | --- | --- | --- | --- | --- |
| MFNGRPFPVDAFPKIIRNAIYEVEQHTQAPQGLIAASALGVISLACQNRIDVCRLNNLRGPVSLFLMTLAESGERKSTVDKLLMKPLYQLEEDLFEKYTHDLTAWRNDEAIFNIEKKALMSKLKSDIRRNKDHLATNERLKELLTTNPKAPVRFKFLFNDATPAAIKAHLCGHWRSVGIMSDEAGIIFNGYTLNELPFINKMWDGSIFTVERKNEPEKLIRDARITLSLMVQPNVFKGYIDRKGDMAKGIGFFARCLMCQPASTQGNRKISNPIFSNEHLPVFHQRLMEIVNESIIKINENNRICLRFSAEAERHWIEFYNQVESEMRMIGLLYDFKDYASKMAENMARLAALLHYFSGDGGDISVTAVKAAVEIVAWYIEEYIRLFSKKEEFSLDVSEADELYCWIKDYCTQKFSSCIKKNIILQFGPNKFRNRDKANELIRILISQNKIFISSWGKTKIINITHCVF | 4.5 | – | – | – | – | – | – | – | – | – | – | – |
| MTMFQYYKRSRHFVFSAFIAFVFVLLCQNTAFARASSNGDLPTKADLQAQLDSLNKQKDLSAQDKLVQQDLTDTLATLDKIDRIKEETVQLRQKVAEAPEKMRQATAALTALSDVDNDEETRKILSTLSLRQLETRVAQALDDLQNAQNDLASYNSQLVSLQTQPERVQNAMYNASQQLQQIRSRLDGTDVGETALRPSQKVLMQAQQALLNAEIDQQRKSLEGNTVLQDTLQKQRDYVTANSARLEHQLQLLQEAVNSKRLTLTEKTAQEAVSPDEAARIQANPLVKQELEINQQLSQRLITATENGNQLMQQNIKVKNWLERALQSERNIKEQIAVLKGSLLLSRILYQQQQTLPSADELENMTNRIADLRLEQFEVNQQRDALFQSDAFVNKLEEGHTNEVNSEVHDALLQVVDMRRELLDQLNKQLGNQLMMAINLQINQQQLMSVSKNLKSILTQQIFWVNSNRPMDWDWIKAFPQSLKDEFKSMKITVNWQKAWPAVFIAFLAGLPLLLIAGLIHWRLGWLKAYQQKLASAVGSLRNDSQLNTPKAILIDLIRALPVCLIILAVGLILLTMQLNISELLWSFSKKLAIFWLVFGLCWKVLEKNGVAVRHFGMPEQQTSHWRRQIVRISLALLPIHFWSVVAELSPLHLMDDVLGQAMIFFNLLLIAFLVWPMCRESWRDKESHTMRLVTITVLSIIPIALMVLTATGYFYTTLRLAGRWIETVYLVIIWNLLYQTVLRGLSVAARRIAWRRALARRQNLVKEGAEGAEPPEEPTIALEQVNQQTLRITMLLMFALFGVMFWAIWSDLITVFSYLDSITLWHYNGTEAGAAVVKNVTMGSLLFAIIASMVAWALIRNLPGLLEVLVLSRLNMRQGASYAITTILNYIIIAVGAMTVFGSLGVSWDKLQWLAAALSVGLGFGLQEIFGNFVSGLIILFERPVRIGDTVTIGSFSGTVSKIRIRATTITDFDRKEVIIPNKAFVTERLINWSLTDTTTRLVIRLGVAYGSDLEKVRKVLLKAATEHPRVMHEPMPEVFFTAFGASTLDHELRLYVRELRDRSRTVDELNRTIDQLCRENDINIAFNQLEVHLHNEKGDEVTEVKRDYKGDDPTPAVG | 5.8 ± 0.075 | 6.4 ± 0.7 | 5.72 ± 0.36 | 6.99 ± 1.1 | 5.79 ± 0.11 | 3.06 ± 0.094 | 5.56 ± 0.15 | 11.1 ± 2.1 | 6.73 ± 0.33 | 13.1 ± 1.6 | 5.94 ± 0.43 | 11.4 ± 0.85 |
| MDDCGAILHNIETKWLYDFLTLEKCRNFSQAAVSRNVSQPAFSRRIRALEQAIGVELFNRQVTPLQLSEQGKIFHSQIRHLLQQLESNLAELRGGSDYAQRKIKIAAAHSLSLGLLPSIISQMPPLFTWAIEAIDVDEAVDKLREGQSDCIFSFHDEDLLEAPFDHIRLFESQLFPVCASDEHGEALFNLAQPHFPLLNYSRNSYMGRLINRTLTRHSELSFSTFFVSSMSELLKQVALDGCGIAWLPEYAIQQEIRSGKLVVLNRDELVIPIQAYAYRMNTRMNPVAERFWRELRELEIVLS | 5 ± 0.22 | – | 4.98 | 4.5 | – | 2.52 | 5.18 | – | 5.51 | – | – | 10.4 ± 0.27 |
| MTQENEIKRPIQDLEHEPIKPLDNSEKGSKVSQALETVTTTAEKVQRQPVIAHLIRATERFNDRLGNQFGAAITYFSFLSMIPILMVSFAAGGFVLASHPMLLQDIFDKILQNISDPTLAATLKNTINTAVQQRTTVGLVGLAVALYSGINWMGNLREAIRAQSRDVWERSPQDQEKFWVKYLRDFISLIGLLIALIVTLSITSVAGSAQQMIISALHLNSIEWLKPTWRLIGLAISIFANYLLFFWIFWRLPRHRPRKKALIRGTFLAAIGFEVIKIVMTYTLPSLMKSPSGAAFGSVLGLMAFFYFFARLTLFCAAWIATAEYKDDPRMPGKTQP | 4.96 ± 0.058 | 4.8 ± 0.18 | 3.99 ± 0.46 | 3.56 ± 0.56 | 4.74 ± 0.46 | 2.41 ± 0.45 | 4.07 ± 0.12 | 7.18 ± 1.4 | 4.21 ± 0.15 | 6.7 ± 0.46 | 4.02 ± 0.11 | 6.92 ± 0.24 |
| MALQNEKNSRYLLRDWKPENPAFWENKGKHIARRNLWISVSCLLLAFCVWMLFSAVTVNLNKIGFNFTTDQLFLLTALPSVSGALLRVPYSFMVPIFGGRRWTVFSTAILIIPCVWLGIAVQNPNTPFGIFIVIALLCGFAGANFASSMGNISFFFPKAKQGSALGINGGLGNLGVSVMQLVAPLVIFVPVFAFLGVNGVPQADGSVMSLANAAWIWVPLLAIATIAAWSGMNDIASSRASIADQLPVLQRLHLWLLSLLYLATFGSFIGFSAGFAMLAKTQFPDVNILRLAFFGPFIGAIARSVGGAISDKFGGVRVTLINFIFMAIFSALLFLTLPGTGSGNFIAFYAVFMGLFLTAGLGSGSTFQMIAVIFRQITIYRVKMKGGSDEQAHKEAVTETAAALGFISAIGAVGGFFIPQAFGMSLNMTGSPVGAMKVFLIFYIVCVLLTWLVYGRRKFSQK | 6.73 ± 1.1 | 6.58 ± 0.92 | 6.57 ± 1.3 | 6.52 ± 0.52 | 6.07 ± 0.48 | 2.53 | 6.34 ± 0.088 | 13.7 ± 1.8 | 4.92 ± 0.76 | 10.8 ± 2.6 | 7.05 | 12.86 ± 0.088 |
| MLQLLLAVFIGGGTGSVARWLLSMRFNPLHQAIPLGTLTANLIGAFIIGIGFAWFSRMTNIDPVWKVLITTGFCGGLTTFSTFSAEVVFLLQEGRFGWALLNVFVNLLGSFAMTALAFWLFSASTAH | – | – | 5.83 | – | – | – | – | – | – | – | – | – |
| MTELPIDENTPRILIVEDEPKLGQLLIDYLRAASYAPTLISHGDQVLPYVRQTPPDLILLDLMLPGTDGLTLCREIRRFSDIPIVMVTAKIEEIDRLLGLEIGADDYICKPYSPREVVARVKTILRRCKPQRELQQQDAESPLIIDEGRFQASWRGKMLDLTPAEFRLLKTLSHEPGKVFSREQLLNHLYDDYRVVTDRTIDSHIKNLRRKLESLDAEQSFIRAVYGVGYRWEADACRIV | 4.22 ± 0.48 | 4.1 ± 0.35 | 4.1 ± 0.073 | 4.58 ± 0.1 | 4.01 ± 0.14 | 2.89 ± 0.092 | 5.54 ± 0.16 | 11.7 ± 2.5 | 4.05 ± 0.21 | 6.62 ± 0.32 | 5.58 ± 0.26 | 13.5 ± 0.37 |
